{"source": "patent US8710195B2", "about": "“Fluorescent proteins” (JNC Corporation, priority 2003, dated 2014)", "key": {"[1]": {"test": "Substrate specificity, chemiluminescence with h-CTZ", "format": "biochemical", "settings": "compared with coelenterazine", "method": "bFP-aq, e-bFP-aq, and h-bFP-aq (0.25 μg) prepared in Example 2 were individually dissolved in 100 μl of 50 mM Tris-HCl (pH 7.6) containing 5 mM dithiothreitol (DTT) and 1 μg/μl coelenterazine and its analog were added to each solution. Each chemiluminescence in the steady reaction state (after 10 min) was measured with a luminometer (AB-2200; manufactured by Atto Co., Ltd.)."}, "[2]": {"test": "Recoverability of fluorescence-generating ability after heating at 90° C.", "format": "physicochemical", "settings": "heated at 90° C. for 3 min", "method": "The thermal stability of bFP-aq prepared in Examples 2 was compared with that of gFP-aq prepared Example 3. The solution containing bFP-aq or gFP-aq with a protein concentration of 0.26 mg/ml was heated at 90° C. for 3 min and allowed to stand at 24° C. Subsequently, each fluorescence generation intensity was measured with a spectrofluorometer."}, "[3]": {"settings": "when calcium ions bind; cited from earlier work"}}, "data": [{"molecule": "O=c1c(Cc2ccccc2)nc2c(Cc3ccccc3)[nH]c(-c3ccc(O)cc3)cn1-2", "note": "[h-coelenterazine]", "values": [{"measurement": "Quality as luminescent substrate of the bFPs", "setting": "[1]", "value": "serves as a luminescent substrate better than coelenterazine"}]}, {"molecule": "aequorin", "values": [{"measurement": "Ability to emit light due to the addition of calcium ions after heat treatment", "setting": "[2]", "value": "completely been lost"}, {"measurement": "maximum wave length of blue light emission", "setting": "[3]", "value": "465-470 nm"}]}]}
